Data reported in paper PMC8141814 (Frontiers in Molecular Biosciences, 2021).

What was measured:
[1] = target: the molecule itself; experiment: SEC; SEC profile of cell-free synthesized ORF14 in DDM detergent micelles
SEC = target: the molecule itself; experiment: SEC

B1: ORF14 (ORF9c) protein, full-length (natural protein)
chain: MLQSCYNFLKEQHCQKASTQKGAEAAVKPLLVPHHVVATVQEIQLQAAVGELLLLEWLAMAVMLLLLCCCLTD
notes: also called OFR14
**Q.** B1 was tested. Which “stoichiometry N” value [1] did it give?
**A.** The value was roughly 9.

B2: nsp9, full-length (natural protein)
chain: NNELSPVALRQMSCAAGTTQTACTDDNALAYYNTTKGGRFVLALLSDLQDLKWARFPKSDGTGTIYTELEPPCRFVTDTPKGPKVKYLYFIKGLNNLNRGMVLGSLAATVRLQ
notes: also called fl nsp9
**Q.** How did the “stoichiometry N” value (SEC) turn out when B2 was run?
**A.** Its value is 2.
